Test results as given in patent US10398755B2, “Clusterin pharmaceuticals and treatment methods using the same” (UNIVERSITY OF SOUTHERN CALIFORNIA, priority 2009, dated 2019).

Target: T1, MMP-7 (Mus musculus, UniProt Q10738)
T1 construct: purchased R&D Systems
T1 sequence (Q10738 95-264): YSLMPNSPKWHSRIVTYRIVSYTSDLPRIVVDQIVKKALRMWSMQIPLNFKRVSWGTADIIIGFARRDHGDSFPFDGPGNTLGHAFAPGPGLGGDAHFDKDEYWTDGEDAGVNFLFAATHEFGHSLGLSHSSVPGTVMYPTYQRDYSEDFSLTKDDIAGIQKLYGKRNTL
Assay: MMP inhibition assay (FRET peptide substrate), APMA-activated MMP-7
Type: biochemical
Details: CLU 50 μg/ml (0.63 μM), RT 0.3 h
Description: Recombinant MMP-9 catalytic domain (A) or APMA-activated MMP-7 (B) was incubated with PBS, CLU (50 μg/ml or 0.63 μM), SB3-CT (2 μM), or BSA (50 μg/ml), and MMP FRET substrate at RT for 0.3 h. RFU in PBS samples was considered 100%. Each reaction was performed in triplicate. Standard errors were depicted as a bar in each graph. MMPs were mixed with CLD in TSCB buffer, 50 mM Tris-HCI, pH, 7.5, 150 mM NaCl, 5 mM CaCl2, 0.002% Brij35 (or otherwise indicated concentration) 30 min prior to substrate addition, and incubated for 3 h at RT in the presence or absence of 0.02 mM p-aminophenylmercuric acetate (APMA). MMP activity was measured using a 5-FAM/QXL520 fluorescence resonance energy transfer (FRET) peptide as a substrate (EXlEm=490 nm/520 nm) (AnaSpec, Fremont, Calif.), according to the manufacturer's protocol. Relative fluorescence unit (RFU) was obtained by subtracting the values of APMA- or enzyme-omitted reactions from those of test samples, and then considering the fluorescence unit of a PBS (vehicle) sample as 100%. Enzyme reactions were performed in black 96-well plate, containing combinations of 10 ng, 5 ng, 5 ng, 10 ng, 2.5 μg, 2.5 μg of MMP-2, MMP-7, catalytic domain of MMP-9, MMP-9, CCLU, and/or BSA, respectively, in 50 μl reaction volume. As MMP substrates (0.4 μM), 520 MMP FRET substrate […] […] Fluorescence was monitored using a Victor^3TM V multilabel counter (PerkinElmer). […]

inhibition of APMA-activated MMP-7: 17%
B1: CLU: secreted disulfide-linked heterodimeric glycoprotein (70-80 KD); assays used recombinant mouse CLU with C-terminal (His)6 (protein, UniProt Q06890 22-448, looked up)
Clusterin: EQEVSDNELQELSTQGSRYINKEIQNAVQGVKHIKTLIEKTNAERKSLLNSLEEAKKKKEDALEDTRDSEMKLKAFPEVCNETMMALWEECKPCLKHTCMKFYARVCRSGSGLVGQQLEEFLNQSSPFYFWMNGDRIDSLLESDRQQSQVLDAMQDSFARASGIIDTLFQDRFFARELHDPHYFSPIGFPHKRPHFLYPKSRLVRSLMSPSHYGPPSFHNMFQPFFEMIHQAQQAMDVQLHSPAFQFPDVDFLREGEDDRTVCKEIRRNSTGCLKMKGQCEKCQEILSVDCSTNNPAQANLRQELNDSLQVAERLTEQYKELLQSFQSKMLNTSSLLEQLNDQFNWVSQLANLTQGEDKYYLRVSTVTTHSSDSEVPSRVTEVVVKLFDSDPITVVLPEEVSKDNPKFMDTVAEKALQEYRRKSRAE
modifications: C-terminal His6 tag
